Results as given in patent US20250043302A1, “MUTATED HYDROXYPHENYLPYRUVATE DIOXYGENASE POLYPEPTIDE, AND CODING GENE AND USE THEREOF” (BEIJING DABEINONG BIOTECHNOLOGY CO., LTD., priority 2021, published 2025).

Assays:
Assay type in all cases: in vivo
[1] = test system: Arabidopsis thaliana T1 plants; assay: Isoxaflutole tolerance of transgenic Arabidopsis thaliana T1 plants (spray, bleached leaf area grade, damage score); conditions: Table 11; for Classification and statistics of the grade of pesticide damage Grade 0: number of plants at grade 0; for Classification and statistics of the grade of pesticide damage Grade 1: number of plants at grade 1; for Classification and statistics of the grade of pesticide damage Grade 2: number of plants at grade 2; for Classification and statistics of the grade of pesticide damage Grade 3: number of plants at grade 3; for Scores: pesticide damage score;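 on Scores: Weighted damage index from 0 to 100 where higher means more damage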
How it was run: (§1)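 Read-out: per-plant damage grade 0–3 from proportion of bleached leaf area at 7 DAT (1 <50%, 2 >50%, 3 100%). Plants were T1 transformants, glufosinate-selected, plus wild-type CK, sprayed 18 days post-sowing. Rates: topramezone 25–200, isoxaflutole 35–280, mesotrione 52.5–420 g ai/ha.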

[2] = test system: Arabidopsis thaliana T1 plants; assay: Mesotrione tolerance of transgenic Arabidopsis thaliana T1 plants (spray, bleached leaf area grade, damage score); set-up: Scores: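 damage score 0-100 computed as Σ(N×S)/(T×M)×100 over grades 0-3 with higher meaning more damage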; conditions: Table 12; for Classification and statistics of the grade of pesticide damage Grade 0: number of plants at grade 0; for Classification and statistics of the grade of pesticide damage Grade 1: number of plants at grade 1; for Classification and statistics of the grade of pesticide damage Grade 2: number of plants at grade 2; for Classification and statistics of the grade of pesticide damage Grade 3: number of plants at grade 3; for Scores: pesticide damage score
How it was run: as §1

[3] = test system: Arabidopsis thaliana T1 plants; assay: Topramezone tolerance of transgenic Arabidopsis thaliana T1 plants (spray, bleached leaf area grade, damage score); conditions: Table 10; for Classification and statistics of the grade of pesticide damage Grade 0: number of plants at grade 0; for Classification and statistics of the grade of pesticide damage Grade 1: number of plants at grade 1; for Classification and statistics of the grade of pesticide damage Grade 2: number of plants at grade 2; for Classification and statistics of the grade of pesticide damage Grade 3: number of plants at grade 3; for Scores: pesticide damage score
How it was run: as §1

B1: HPPDm-3-02: nucleotide sequence encoding Avena sativa HPPD with A106G+F372A+F383W; vector DBN11784 (nucleic acid)
DNA: ATGCCACCTACTCCAGCTACAGCTACTGGTGCTGCTGCTGCTGCCGTTACTCCTGAGCACGCTGCCAGGTCATTCCCCAGGGTGGTTCGCGTGAACCCCAGATCTGATAGGTTCCCAGTTCTGAGCTTCCACCATGTTGAGCTGTGGTGCGCTGATGCTGCTTCTGCTGCTGGCAGGTTCTCTTTCGCTCTTGGTGCTCCACTCGCTGCTAGATCTGATCTGTCTACAGGAAATAGCGCTCATGCCTCACTCCTGCTTCGCTCAGGTGCTTTGGCCTTCCTCTTCACCGCTCCATATGCTCCCCCACCTCAGGAGGGTGCTACTGCTGCTGCTACAGCCTCCATTCCAAGCTTCTCAGCTGATGCCGCTAGAACCTTCGCTGCTGCTCATGGACTTGCCGTGAGGTCTGTTGGTGTTCGCGTGGCTGATGCTGCTGAGGCTTTCAGAGTTTCCGTTGCCGGCGGAGCTAGGCCAGCTTTCGCTCCTGCTGATTTGGGACATGGTTTCGGCCTGGCTGAGGTTGAGCTTTACGGTGACGTGGTTCTCCGCTTCGTGTCTTACCCAGATGAGACTGACCTGCCTTTCCTTCCCGGCTTCGAGAGAGTTTCCTCTCCTGGTGCCGTGGATTACGGCCTGACAAGGTTCGACCACGTGGTTGGAAACGTTCCCGAGATGGCTCCAGTGATCGATTACATGAAGGGCTTCCTTGGATTCCATGAGTTCGCCGAGTTCACTGCTGAGGACGTGGGAACCACTGAGTCCGGTTTGAACTCTGTGGTTCTCGCCAACAATTCTGAGGCTGTTTTGCTCCCTCTGAATGAGCCTGTGCATGGAACCAAGAGGAGAAGCCAGATTCAAACTTACCTGGAGTACCACGGTGGCCCTGGAGTTCAGCATATCGCCCTTGCTTCTAATGATGTGTTGCGCACACTCAGAGAGATGCGCGCCAGAACCCCCATGGGAGGTTTCGAGTTCATGGCCCCACCACAGGCTAAGTACTACGAGGGCGTTAGAAGGATTGCTGGAGACGTGTTGAGCGAGGAGCAGATCAAGGAGTGCCAAGAGCTGGGTGTTCTTGTGGATAGGGATGACCAGGGCGTTCTGCTTCAAATTGCCACTAAGCCAGTGGGCGACCGCCCTACATTCTGGCTTGAGATGATTCAAAGAATCGGCTGCATGGAGAAGGATGAGGTTGGACAGGAGTACCAAAAGGGCGGATGCGGTGGCTTCGGAAAGGGTAACTTCAGCGAGTTGTTCAAGTCAATCGAGGACTACGAGAAGAGCCTCGAGGTGAAGCAGTCAGTGGTTGCCCAAAAGTCCTGA
modifications: HPPDm-3-02 Nucleotide Sequence
notes: vector DBN11784
- Resistance evaluation ([1]; isoxaflutole 140 g ai/ha (2×)): Highly resistant
- Classification and statistics of the grade of pesticide damage Grade 0 ([1]; isoxaflutole 140 g ai/ha (2×)): 16
- Classification and statistics of the grade of pesticide damage Grade 1 ([1]; isoxaflutole 140 g ai/ha (2×)): 0
- Classification and statistics of the grade of pesticide damage Grade 2 ([1]; isoxaflutole 140 g ai/ha (2×)): 0
- Classification and statistics of the grade of pesticide damage Grade 3 ([1]; isoxaflutole 140 g ai/ha (2×)): 0
- Scores ([1]; isoxaflutole 140 g ai/ha (2×)): 0
- Resistance evaluation ([1]; isoxaflutole 280 g ai/ha (4×)): Highly resistant
- Classification and statistics of the grade of pesticide damage Grade 0 ([1]; isoxaflutole 280 g ai/ha (4×)): 12
- Classification and statistics of the grade of pesticide damage Grade 1 ([1]; isoxaflutole 280 g ai/ha (4×)): 4
- Classification and statistics of the grade of pesticide damage Grade 2 ([1]; isoxaflutole 280 g ai/ha (4×)): 0
- Classification and statistics of the grade of pesticide damage Grade 3 ([1]; isoxaflutole 280 g ai/ha (4×)): 0
- Scores ([1]; isoxaflutole 280 g ai/ha (4×)): 8
- Resistance evaluation ([2]; mesotrione 210 g ai/ha (2×)): Highly resistant
- Classification and statistics of the grade of pesticide damage Grade 0 ([2]; mesotrione 210 g ai/ha (2×)): 16
- Classification and statistics of the grade of pesticide damage Grade 1 ([2]; mesotrione 210 g ai/ha (2×)): 0
- Classification and statistics of the grade of pesticide damage Grade 2 ([2]; mesotrione 210 g ai/ha (2×)): 0
- Classification and statistics of the grade of pesticide damage Grade 3 ([2]; mesotrione 210 g ai/ha (2×)): 0
- Scores ([2]; mesotrione 210 g ai/ha (2×)): 0
- Resistance evaluation ([2]; mesotrione 420 g ai/ha (4×)): Highly resistant
- Classification and statistics of the grade of pesticide damage Grade 0 ([2]; mesotrione 420 g ai/ha (4×)): 14
- Classification and statistics of the grade of pesticide damage Grade 1 ([2]; mesotrione 420 g ai/ha (4×)): 2
- Classification and statistics of the grade of pesticide damage Grade 2 ([2]; mesotrione 420 g ai/ha (4×)): 0
- Classification and statistics of the grade of pesticide damage Grade 3 ([2]; mesotrione 420 g ai/ha (4×)): 0
- Scores ([2]; mesotrione 420 g ai/ha (4×)): 4
- Resistance evaluation ([3]; topramezone 100 g ai/ha (4×)): Highly resistant
- Classification and statistics of the grade of pesticide damage Grade 0 ([3]; topramezone 100 g ai/ha (4×)): 16
- Classification and statistics of the grade of pesticide damage Grade 1 ([3]; topramezone 100 g ai/ha (4×)): 0
- Classification and statistics of the grade of pesticide damage Grade 2 ([3]; topramezone 100 g ai/ha (4×)): 0
- Classification and statistics of the grade of pesticide damage Grade 3 ([3]; topramezone 100 g ai/ha (4×)): 0
- Scores ([3]; topramezone 100 g ai/ha (4×)): 0
- Resistance evaluation ([3]; topramezone 200 g ai/ha (8×)): Highly resistant
- Classification and statistics of the grade of pesticide damage Grade 0 ([3]; topramezone 200 g ai/ha (8×)): 16
- Classification and statistics of the grade of pesticide damage Grade 1 ([3]; topramezone 200 g ai/ha (8×)): 0
- Classification and statistics of the grade of pesticide damage Grade 2 ([3]; topramezone 200 g ai/ha (8×)): 0
- Classification and statistics of the grade of pesticide damage Grade 3 ([3]; topramezone 200 g ai/ha (8×)): 0
- Scores ([3]; topramezone 200 g ai/ha (8×)): 0
